{"source": "patent US20200347103A1", "target": "purified folded MHC-complex (Example 34)", "assay": "sandwich ELISA: W6/32 coated, detection with HRP-conjugated rabbit anti-β2m"}
{"substance": "W6/32 mouse-anti-HLA-ABC antibody (Dako M0736)", "values": [{"measurement": "OD450 of wells with MHC complex relative to wells with the negative control β2m", "result": 6, "unit": "fold"}]}
